In patent US6987169:

Biological target: rSK2 small conductance, calcium-activated potassium channel (rat), P70604
Sequence (P70604 whole entry): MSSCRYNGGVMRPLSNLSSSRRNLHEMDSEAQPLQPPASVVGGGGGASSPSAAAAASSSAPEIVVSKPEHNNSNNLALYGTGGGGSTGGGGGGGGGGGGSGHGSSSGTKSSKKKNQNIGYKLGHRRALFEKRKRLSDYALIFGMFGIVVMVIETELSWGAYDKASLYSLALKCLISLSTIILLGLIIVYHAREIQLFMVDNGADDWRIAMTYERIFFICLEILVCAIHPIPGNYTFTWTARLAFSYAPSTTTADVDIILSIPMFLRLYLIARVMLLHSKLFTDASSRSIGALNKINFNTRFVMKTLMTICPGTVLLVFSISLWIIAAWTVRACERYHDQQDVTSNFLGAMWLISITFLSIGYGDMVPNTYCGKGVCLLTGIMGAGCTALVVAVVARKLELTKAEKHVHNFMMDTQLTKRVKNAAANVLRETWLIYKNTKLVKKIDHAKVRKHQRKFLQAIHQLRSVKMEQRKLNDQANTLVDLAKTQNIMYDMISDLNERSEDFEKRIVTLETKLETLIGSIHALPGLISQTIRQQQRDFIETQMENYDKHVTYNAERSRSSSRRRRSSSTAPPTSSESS

B1: apamin, P01500 28-45 (peptide)
peptide: CNCKAPETALCARRCQQH
modifications: not checked
For B1, the Kd was 63 µM.
